Laboratory results as given in patent US20230065495A1, “MULTIPARTITE AND CIRCULARLY PERMUTED BETA-BARREL POLYPEPTIDES AND METHODS FOR THEIR USE” (University of Washington, priority 2020, published 2023).

Experiments:
[1] = Chromophore titration with DFHBI-1T; assay type: binding
Experimental: (§1) Fluorescence endpoints were measured on a Synergy Neo2™ hybrid multi-mode reader (BioTek) in flat bottom, black polystyrene, non-binding surface 96-well microplates (Corning 3650). In measuring chromophore binding affinities (FIG. 6d,e), mFAP2, mFAP2a, and mFAP2b, and mFAP10 were produced by large-scale protein purification and SEC purification^9. Proteins were aliquoted in eight technical replicates in 200 μL final volumes to 20.0 nM final concentration in ten serial dilutions (√{square root over (10)} dilution factor) of DFHBI starting from 31.6 μM DFHBI or 31.6 μM DFHBI-1T final concentrations, including an eleventh condition without chromophore. Fluorescence was excited at λex=468 nm and fluorescence emission measured at λem=530 nm. Background fluorescence endpoints of wells with identical chromophore concentrations but purified protein replaced with an identical volume of high salt Tev cleavage buffer were measured, and fluorescence endpoints subtracted from those measured with protein. Background-subtracted data were averaged and the means normalized from 0 to 1 and fit to a single binding site isotherm function using non-linear least squares fitting to obtain a fitted Kd value (Table 4), and the fit scaled to the maximum mean value (FIG. 6d,e).

[2] = Chromophore titration with DFHBI; assay type: binding
Experimental: as §1

[3] = Absolute quantum yield (integrating sphere) and brightness; assay type: physicochemical
Experimental: Protein preparation. mFAP2a, mFAP2b and mFAP10 were produced by large-scale protein purification^9 and dialyzed overnight into DPBS that was adjusted to pH 7.40 using NaOH.
Chromophore preparation. DFHBI (Lucerna) and DFHBI-1T (Lucerna) were dissolved to 20.0 mM in 100% DMSO, and diluted in DPBS (pH 7.40) to measure absorbances on a Jasco V-750 spectrophotometer at peak absorbance wavelengths (417 nm for DFHBI and 422 nm for DFHBI-1T). Following background subtraction of identical buffer without chromophore, Beer's Law was used to calculate the molar chromophore concentrations of the stock solutions using previously reported extinction coefficients^5.
Preparation of protein-chromophore complexes. […]
Absolute quantum yield. […] Absolute quantum yields were measured for solutions of protein-chromophore complexes in DPBS (pH 7.40) in which ≥95% of the total chromophore was occupying the protein binding pocket (Table 4). Protein-chromophore complex samples and control samples were excited at λex=440 nm and absolute quantum yields were calculated according to the equation: […]
where fem is the emitted photon flux and fabs is the absorbed photon flux. […] Absolute quantum yield data was analyzed with U6039-05 PLQY measurement software (Table 4; FIG. 8).

Kd [1]: 45 nM
B1: mFAP10: canonical, single-chain mFAP, SEQ ID NO: 534 (protein)
chain: SRAAQLLPGTWQATFTNEDGQTSQGQIHFQPRSPYTMDIVAQGTISDGRPIVGYGKATVKTPDTLDIDITYPSLGNIKAQGQITMDSPTQFKFDATTKGENDFHGRLTGTLQRQE
higher affinity for DFHBI than DFHBI-1T [2]: ~2.6 fold
brighter fluorescence with DFHBI-1T than DFHBI [3]: ~12 fold
